Measured values: patent US20040049024A1, “Compositions and methods related to the minn1 tumor suppressor gene and protein” (priority 2003, published 2004)
Peptide text beside a SMILES is read from it. * marks the point of attachment. Cbz = O=C(OCc1ccccc1)*; CH2F = FC*

Columns and labels:
293-T cells = assay: Cell death after Minn1 or Fas transfection, with or without caspase inhibitor; format: cell-based, human; settings: 30 μM, added immediately after transfection; DMSO carrier
Protocol: Fas is a well-characterized inducer of apoptosis (Nagata, Annu. Rev. Genet., 33:29-55 [1999]).
Apoptosis requires the activation of caspase proteases (Stennicke and Salvesen, Biochim. Biophys. Acta 1477:299-306 [2000]). In order to confirm that the cell death observed in the Minn1 and […] transfected cells was apoptotic cell death, the transfection experiments were repeated in the presence of the caspase inhibitor, z-VAD-fink (Calbiochem). The drug was added to the cells to a final concentration of 30 μM immediately after transfection and was maintained during subsequent medium changes. DMSO was used as the drug carrier, and was also included in transfections that contained no drug in order to normalize transfection conditions.

[1] = target: T1, HA-H-Ras(WT) fusion protein (UniProt P01112 1-186); assay: co-transfection in 293-T cells, anti-HA immunoprecipitation, anti-FLAG Western blot
T1 construct: Expressed in 293-T cells; precipitated with anti-HA beads; also called wild-type HA-H-Ras
Protocol: (§1) After 48 hours, the cells were lysed, immunoprecipitated using anti-HA antibody-conjugated sepharose beads (BAbCO), washed and analyzed by Western immunoblotting using an anti-FLAG monoclonal antibody (M2 antibody, SIGMA) and an alkaline phosphatase conjugated secondary antibody with an ECL detection kit (Amersham).
(§2) After 48 hours, the cells were lysed in EDTA-free RIPA buffer (described in Clark et al., J. Biol. Chem., 272:20990-20993 [1997]), immunoprecipitated with anti-HA antibody-conjugated sepharose beads (BAbCO), washed and subjected to Western immunoblotting using an anti-FLAG monoclonal primary antibody (M2 antibody, Sigma) and an alkaline phosphatase conjugated secondary antibody with an ECL chemiluminescence kit (Amersham).

[2] = target: T2, HA-H-Ras(G12V) fusion protein (UniProt P01112 1-186); assay: as above
T2 construct: Expressed in 293-T cells; precipitated with anti-HA beads; also called pCGNHA-H-Ras(G12V)
Protocol: as §1, §2

H-Ras [3] = target: T3, H-Ras (Homo sapiens, UniProt P01112); assay: In vitro Ras/Minn1 binding and co-precipitation assay
T3 construct: made in house; XL1-Blue Escherichia coli for the MBP fusions
Source text: The ability of Ras and Minn1 to interact in vitro was examined. These experiments used in vitro produced and purified maltose binding protein (MBP) fusion proteins containing the Minn1 Ras-Association (RA) domain or the Raf Ras-Binding-Domain (RBD), and purified Ras protein in a standard protein binding and co-precipitation assay.
Ras protein was produced by inducing an H-Ras bacterial expression construct in bacteria followed by differential denaturation and dialysis, as known in the art (See e.g., Campbell-Burk and Carpenter, Methods Enzymol., 255:3-13 [1995]). […] Purity and concentrations of the recombinant proteins were assessed by denaturing polyacrylamide gel electrophoresis (SDS-PAGE) followed by Coomassie Blue staining and comparison to known standards.
After this time, the binding reactions were centrifuged and washed. Following the washing steps, the binding reactions were loaded and resolved using PAGE, blotted to a polyvinylidene difluoride (PVDF) membrane, and analyzed by Western immunoblotting using an anti-H-Ras monoclonal primary antibody (Quality Biotech, #146). Detection was accomplished using an alkaline phosphatase conjugated secondary antibody and ECL chemiluminescence reagent (Amersham). […]
The proteins resolved in the PAGE were analyzed by Western immunoblotting using an anti-H-Ras monoclonal antibody (Viro Med). […]

H-Ras [4] = assay: In vivo Ras/Minn1 binding assay (co-transfection/co-precipitation in 293-T cells); format: cell-based, human; settings: HA-H-Ras(WT) versus HA-H-Ras(G12V), 48 hours after co-transfection
Source text: To confirm and complement the results observed in the in vitro binding assay, an in vivo binding assay was undertaken using recombinant FLAG-tagged Minn1 protein and hemagglutinin (HA)-tagged Ras proteins. These experiments used a standard co-transfection/co-precipitation protocol common in the art, using 293-T cells, a transformed human embryonal kidney cell line.
Expression vectors encoding two different forms of HA-tagged Ras protein were used in this assay, namely, a wild-type HA-H-Ras fusion protein and an HA-H-Ras containing a gain-of-function (G12V) mutation. This mutation is known to be oncogenic, and results in elevated Ras signalling activity (Clark and Der, in GTPases in Biology [eds. Dickey and Birmbauer], Springer-Verlag London Ltd., pp. 259-287 [1993]). […] Thus, this mutant form of Ras is considered to be locked in an active conformation.
as §1, with “The in vivo binding assay was conducted by co-transfecting mammalian expression vectors encoding HA-H-Ras(WT) or HA-H-Ras(G12V) with an expression vector encoding FLAG-Minn1 into 293-T cells. After” for “After”, “(Amersham). […]” for “(Amersham).”

COC(=O)C[C@H](NC(=O)[C@H](C)NC(=O)[C@@H](NC(=O)OCc1ccccc1)C(C)C)C(=O)CF [z-VAD-fmk] (Cbz-Val-Ala-Asp(OMe)-CH2F)
Effect on Fas-induced cell death (293-T cells): severely reduced
Effect on Minn1-induced cell death (293-T cells): severely reduced

B1: FLAG-tagged Minn1 protein (other, not shown: small tags and cut ends)
chain: MGEAEAPSFEMTWSSTTSSGYCSQEDSDSELEQYFTARTSLARRPRRDQDEPVEWETPDLFQAEIEQKIKEYNAQINSNLFMSLNKDGSYTGFIKVQLKLVRPVSVPSSKKPPSLQDARRGPGRGTSVRRRTSFYLPKDAVKHLHVLSRTRAREVIEALLRKFLVVDDPRKFALFERAERHGQVYLRKLLDDEQPLRLRLLAGPSDKALSFVLKENDSGEVNWDAFSMPELHNFLRILQREEEEHLRQILQKYSYCRQKIQEALHACPLG
notes: also called FLAG-Minn1
binding result [1]: binds
binding result [2]: binds

B2: MBP-Minn1: maltose binding protein fusion protein containing the Minn1 Ras-Association (RA) domain, amino acid positions 59-270 (protein)
chain: DLFQAEIEQKIKEYNAQINSNLFMSLNKDGSYTGFIKVQLKLVRPVSVPSSKKPPSLQDARRGPGRGTSVRRRTSFYLPKDAVKHLHVLSRTRAREVIEALLRKFLVVDDPRKFALFERAERHGQVYLRKLLDDEQPLRLRLLAGPSDKALSFVLKENDSGEVNWDAFSMPELHNFLRILQREEEEHLRQILQKYSYCRQKIQEALHACPLG
modifications: left off: large carriers
GTP dependence of the interaction with Ras (H-Ras [3]; GTP-loaded versus GDP-loaded H-Ras): GTP-dependent
Co-precipitation of Ras protein (physical interaction with Ras) (H-Ras [3]; purified H-Ras preloaded with GTP or GDP, 4° C. for 2 hours, Western immunoblot with anti-H-Ras antibody): co-precipitated

B3: FLAG-tagged Minn1: Minn1 protein with amino terminal FLAG epitope tag, expressed from pCDNAFLAG-Minn1 in 293-T cells (protein)
chain: B1 chain
modifications: left off: small tags and cut ends
Association with HA-tagged Ras proteins (anti-HA immunoprecipitation, anti-FLAG Western) (H-Ras [4]): preferentially associated with the activated HA-Ras(G12V) protein
